Source: paper doi:10.1101/758698

Assays:
Assay in all cases: fluorescence polarization
[1] = molecular target: hBrr2T1 (human, UniProt O75643 395-2129)
[2] = molecular target: hBrr2T1-SS-linear (human, UniProt O75643 395-2129, M641C;A1582C)
[3] = molecular target: hBrr2T1-SS-rot+ (human, UniProt O75643 395-2129, D534C;N1866C)

Measured: binding result

Sequence of hBrr2T1-SS-linear (O75643 395-2129 M641C/A1582C): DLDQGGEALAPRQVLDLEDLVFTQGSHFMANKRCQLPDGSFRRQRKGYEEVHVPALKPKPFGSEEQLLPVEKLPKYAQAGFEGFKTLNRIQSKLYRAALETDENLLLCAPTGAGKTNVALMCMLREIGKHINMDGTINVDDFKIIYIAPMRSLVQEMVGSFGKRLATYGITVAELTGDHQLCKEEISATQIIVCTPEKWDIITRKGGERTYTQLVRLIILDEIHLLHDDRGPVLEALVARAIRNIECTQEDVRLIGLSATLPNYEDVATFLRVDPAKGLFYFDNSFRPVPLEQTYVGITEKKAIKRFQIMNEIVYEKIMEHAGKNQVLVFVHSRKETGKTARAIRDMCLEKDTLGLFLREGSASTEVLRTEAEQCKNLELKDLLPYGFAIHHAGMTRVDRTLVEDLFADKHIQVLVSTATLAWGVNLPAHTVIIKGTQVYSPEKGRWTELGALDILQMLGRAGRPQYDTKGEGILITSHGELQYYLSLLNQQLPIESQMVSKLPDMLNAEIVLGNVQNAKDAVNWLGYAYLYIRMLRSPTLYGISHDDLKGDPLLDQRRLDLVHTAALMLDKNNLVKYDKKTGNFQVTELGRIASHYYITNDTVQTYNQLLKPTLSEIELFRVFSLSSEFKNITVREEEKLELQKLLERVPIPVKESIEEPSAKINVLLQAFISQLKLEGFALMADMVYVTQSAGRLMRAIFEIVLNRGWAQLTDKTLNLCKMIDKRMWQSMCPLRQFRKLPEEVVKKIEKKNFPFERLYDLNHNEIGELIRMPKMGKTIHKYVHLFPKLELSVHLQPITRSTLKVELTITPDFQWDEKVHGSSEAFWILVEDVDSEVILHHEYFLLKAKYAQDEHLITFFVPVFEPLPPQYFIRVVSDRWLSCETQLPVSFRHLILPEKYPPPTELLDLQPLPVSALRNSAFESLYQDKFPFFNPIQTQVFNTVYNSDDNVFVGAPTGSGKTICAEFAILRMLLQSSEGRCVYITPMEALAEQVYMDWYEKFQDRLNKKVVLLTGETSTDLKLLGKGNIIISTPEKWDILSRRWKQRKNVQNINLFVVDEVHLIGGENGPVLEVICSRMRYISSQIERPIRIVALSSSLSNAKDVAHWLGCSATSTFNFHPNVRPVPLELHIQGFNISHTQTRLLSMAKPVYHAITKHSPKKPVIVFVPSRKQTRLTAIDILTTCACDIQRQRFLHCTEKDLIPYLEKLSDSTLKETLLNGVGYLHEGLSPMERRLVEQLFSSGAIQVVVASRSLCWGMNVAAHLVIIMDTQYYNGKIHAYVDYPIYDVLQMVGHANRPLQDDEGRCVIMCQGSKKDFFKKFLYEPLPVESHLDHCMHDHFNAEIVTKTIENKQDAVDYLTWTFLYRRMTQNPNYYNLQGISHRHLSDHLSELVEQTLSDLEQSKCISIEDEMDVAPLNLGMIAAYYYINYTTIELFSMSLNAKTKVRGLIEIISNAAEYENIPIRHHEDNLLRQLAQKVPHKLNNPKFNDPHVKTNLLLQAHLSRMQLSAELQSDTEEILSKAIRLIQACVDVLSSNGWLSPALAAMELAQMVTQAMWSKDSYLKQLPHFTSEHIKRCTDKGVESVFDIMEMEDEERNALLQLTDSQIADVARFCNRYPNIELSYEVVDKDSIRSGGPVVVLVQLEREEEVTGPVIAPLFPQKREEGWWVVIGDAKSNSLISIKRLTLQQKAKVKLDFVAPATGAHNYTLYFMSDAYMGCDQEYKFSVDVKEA
Sequence of hBrr2T1-SS-rot+ (O75643 395-2129 D534C/N1866C): as the sequence (O75643 395-2129 M641C/A1582C) above, with D140C, C247M, C1188A, N1472C counted along it
Sequence of hBrr2T1 (O75643 395-2129): as the sequence (O75643 395-2129 M641C/A1582C) above, with C247M, C1188A counted along it

B1: RNA duplex with 3' ss overhang (dsRNA)
RNA 1: CGCGUGCUGGUCGAAAUUUAAUUAUAAACCAGACCGUC
RNA 2: GACCAGCACGCG
binds: all assays above
